Experimental data reported in the supplement of paper PMC10126150.
± gives the standard deviation of the averaged measurements.

Tested on: ATP
Assay: switch fluorescence ratio, 500 uM ATP over buffer (Cy3 cluster intensity, sum of 5 cycles each) (fold (ratio)); higher = stronger signal-on switching upon ATP binding; sequences stand for … in TCGTCGGCAGCGTCAGATGTGTATAAGAGACAGTTTTTTTTTTTTTTTTTTTTTTTTT…TC
Conditions: aptamer strand: ATP DNA aptamer (quencher-CACCTGGGGGAGTATTGCGGAGGAAGG + anchor), 100 nM annealed; ATP concentration: 500 uM
How it was run: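 For every switch-domain sequence, the fluorescence ratio is the mean of per-cluster values, each being summed target-cycle Cy3 intensity over summed buffer-cycle Cy3 intensity. Clusters outside 100-1000 RFU were excluded. On a modified Illumina MiSeq flow-cell, the Cy3-labelled switching-strand clusters were annealed to 100 nM quencher-labelled ATP aptamer, imaged in selection buffer and then after 15 min with 500 uM ATP at 22 °C. Five such cycles were run, with NaOH stripping and re-annealing between them.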
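Further: ATP exposure 15 min at 22 °C before imaging.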

Sequence	switch fluorescence ratio
GTCGCGTAGG	1.03 ± 0.024
GTCGCTTGTC	0.995 ± 0.023
GTCGGCGGGG	0.98048 ± 0.0006
GTCGGGGGGA	0.993 ± 0.014
GTCGGGGTTG	0.971 ± 0.014
GTCGGTTGGA	0.977 ± 0.036
GTCGGTTGTG	0.974 ± 0.055
GTCGTAAAGG	0.998 ± 0.021
GTCGTAACAG	0.9857 ± 0.0047
GTCGTAGGGG	1.03 ± 0.018
GTCGTTCTGA	0.99257 ± 0.00085
GTCTAACGCG	0.9698 ± 0.0072
GTCTAACTTA	1.01 ± 0.033
GTCTATAATT	0.9879 ± 0.0048
GTCTCAAGGG	0.981 ± 0.039
GTCTGAAGGA	0.9791 ± 0.0055
GTCTGAGGCT	0.9853 ± 0.0076
GTCTGAGGGG	0.9965 ± 0.0061
GTCTGATTTG	0.999 ± 0.023
GTCTGGCTAC	1.22 ± 0.061
GTCTGTTCTT	0.951 ± 0.019
GTCTTTAAGG	0.964 ± 0.036
GTGAAAAAGA	1.005 ± 0.0075
GTGAAAAGCA	1.04 ± 0.014
GTGAAGGAGC	0.995 ± 0.017

Sequence	switch fluorescence ratio
GTGAAGGGTT	0.993 ± 0.039
GTGACACACC	1.15 ± 0.039
GTGACCCGGA	0.97057 ± 0.00025
GTGAGAGCTG	0.952 ± 0.015
GTGAGCCGGG	1.01 ± 0.014
GTGAGCGGGG	0.974 ± 0.037
GTGAGGATTT	0.986 ± 0.013
GTGAGGCCGC	1.0626 ± 0.001
GTGAGGCGCT	1.03 ± 0.011
GTGAGGCGGG	1.009 ± 0.0024
GTGAGGGATA	0.984 ± 0.043
GTGAGGGGGT	1.06 ± 0.14
GTGAGTGGGG	0.972 ± 0.021
GTGAGTTTTA	0.971 ± 0.019
GTGATCAAGC	0.984 ± 0.028
GTGATCAGTG	0.98698 ± 0.00016
GTGATCATCG	1.0081 ± 0.00023
GTGATGGGAC	1.02 ± 0.0077
GTGATGTTGT	0.977 ± 0.037
GTGATTGATC	1.04 ± 0.023
GTGATTGGGA	0.963 ± 0.058
GTGATTTCGG	1.022 ± 0.0095
GTGATTTTTG	1.01 ± 0.063
GTGCAAATTG	0.997 ± 0.024
GTGCAAGGTA	1 ± 0.014

Sequence	switch fluorescence ratio
GTGCAATAGT	3.71 ± 0.63
GTGCAGGTGC	1.37 ± 0.026
GTGCCCACGT	1 ± 0.039
GTGCCTCCTG	1.03 ± 0.018
GTGCCTTAGG	0.99797 ± 0.00039
GTGCGCATGG	1.13 ± 0.067
GTGCGGAGTG	0.97 ± 0.041
GTGCGGCCAA	1.02 ± 0.044
GTGCGTCTTT	1.01 ± 0.041
GTGCTAAATA	1.02 ± 0.0067
GTGCTAACCT	1.271 ± 0.011
GTGCTGGGCG	0.994 ± 0.028
GTGCTGGGGG	1.02 ± 0.02
GTGCTTGCGG	1.01 ± 0.036
GTGCTTGGAA	0.994 ± 0.033
GTGGAAAATT	0.987 ± 0.018
GTGGAAGAGT	0.999 ± 0.018
GTGGAAGGTT	0.995 ± 0.014
GTGGACAGGC	1 ± 0.02
GTGGACCTGA	1.07 ± 0.02
GTGGACTTCG	1.0178 ± 0.001
GTGGAGTTTG	0.999 ± 0.012
GTGGATAGTC	0.992 ± 0.066
GTGGATATTG	1 ± 0.028
GTGGATGCGG	0.962 ± 0.038

Sequence	switch fluorescence ratio
GTGGATGGGG	1.05 ± 0.13
GTGGCAAAAG	1.02 ± 0.033
GTGGCAGGAA	0.964 ± 0.068
GTGGCGAAGG	0.993 ± 0.014
GTGGCGCCGC	0.959 ± 0.047
GTGGCGTGGA	0.991 ± 0.021
GTGGCTATGG	0.96188 ± 0.00027
GTGGCTCTGC	0.973 ± 0.077
GTGGCTGGGG	1 ± 0.029
GTGGGAAAG	0.983 ± 0.016
GTGGGAACCT	1.45 ± 0.29
GTGGGAAGGG	0.996 ± 0.017
GTGGGAGCGG	1.02 ± 0.042
GTGGGAGGGT	0.984 ± 0.041
GTGGGAGGTG	1 ± 0.046
GTGGGATGGA	0.978 ± 0.014
GTGGGATTTG	0.9697 ± 0.0069
GTGGGGATTC	0.971 ± 0.037
GTGGGGCCGA	1.01 ± 0.031
GTGGGGCGGA	1.01 ± 0.023
GTGGGGGAAG	0.993 ± 0.039
GTGGGGGACT	1.28 ± 0.5
GTGGGGGAGC	0.985 ± 0.029
GTGGGGGCTT	0.947 ± 0.021
GTGGGGGGTG	1.02 ± 0.057
